Square brackets hold non-standard residues; d marks the D form. Ends that are not written are not given here. * marks the point of attachment. boroAlg = alpha-aminoboronic acid analogue of L-2-amino-4-pentenoic acid (1-amino-3-butenylboronic acid, -B(OH)2 in place of -COOH), C=CC[C@H](N*)B(O)O

This is an account of results in patent US6774212 (Bristol-Myers Squibb, dated 2004).

This assay addresses T1, HCV NS3 protease catalytic domain (amino acids 1 to 192), genotype 1a (Hepatitis C virus, genotype 1a, UniProt P26664 1027-1218).
T1 construct: domain: NS3 protease catalytic domain (amino acids 1 to 192); Expressed in E. coli BL21(DE3) and purified to >95%; also called HCV NS3 1a protease; Hepatitis C Virus NS3 protease
Put plainly: active-site titration of NS3 protease; linear plots of Activity vs. [inhibitor], protease concentration from the x-intercept.

T1 sequence (P26664 1027-1218): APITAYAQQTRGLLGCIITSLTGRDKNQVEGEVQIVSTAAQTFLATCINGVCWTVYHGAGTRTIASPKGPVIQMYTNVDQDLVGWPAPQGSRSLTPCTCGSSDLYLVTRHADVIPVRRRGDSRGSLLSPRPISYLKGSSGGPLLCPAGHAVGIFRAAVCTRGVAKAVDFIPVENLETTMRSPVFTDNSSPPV

B1: H-Asp-Glu-Val-Val-Pro-boroAlg-OH (peptide)
peptide: H-DEVVP[boroAlg]
notes: Peptide boronic acid used as titrant to determine the protease concentration
Take B1: the binding result is given as “binds”.
